Test results from PMC6606709, “Granzyme A Stimulates pDCs to Promote Adaptive Immunity via Induction of Type I IFN” (Frontiers in Immunology, 2019).

Target: the molecule itself
Assay: SDS-PAGE under reduced and non-reduced conditions; reduced and non-reduced GzmA run on 10-12 % SDS-PAGE, Coomassie Brilliant Blue stain

B1: recombinant granzyme A (GzmA), mouse, residues 29-260, histidine-tagged (enzyme, UniProt P11032 29-260, looked up)
chain: IIGGDTVVPHSRPYMALLKLSSNTICAGALIEKNWVLTAAHCNVGKRSKFILGAHSINKEPEQQILTVKKAFPYPCYDEYTREGDLQLVRLKKKATVNRNVAILHLPKKGDDVKPGTRCRVAGWGRFGNKSAPSETLREVNITVIDRKICNDEKHYNFHPVIGLNMICAGDLRGGKDSCNGDSGSPLLCDGILRGITSFGGEKCGDRRWPGVYTFLSDKHLNWIKKIMKGSV
notes: mouse granzyme A, residues 29-260; also called recombinant GzmA
B1 was tested, and the “stoichiometry N” value was 2.
